For this data set, the system named is Escherichia coli TOP10. Briefly: shrunken log2 fold change of peptide-encoding DNA abundance (4.5 h post-induction vs induction); higher = less antimicrobial activity (less host growth inhibition). The note with it: time post-induction: 4.5 h; library: site-saturation at positions 5, 18, 19, 20.
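Note: peptides expressed intracellularly from a pBAD plasmid library in pooled LB shake-flask culture, induced with 0.3% L-arabinose, DNA abundance read by NGS, three biological replicates, DESeq2 with apeglm shrinkage.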

Turning to RRIRIRPPRLPRPRPRPWDGPRP, the “shrunken log2 fold change” value was -0.094.
As for RRIRNRPPRLPRPRPRPRMAPRP, the figure is 0.424.
Take RRIRPRPPRLPRPRPRPWIMPRP: the “shrunken log2 fold change” value was -0.236.
RRIRNRPPRLPRPRPRPCGAPRP: the “shrunken log2 fold change” value turned out to be 0.144.
For RRIRVRPPRLPRPRPRPEQLPRP, the “shrunken log2 fold change” value turned out to be 0.185.
As for RRIRVRPPRLPRPRPRPNIWPRP, the figure is -0.13; as for RRIRTRPPRLPRPRPRPHRRPRP, 0.0892.
As for RRIRMRPPRLPRPRPRPIFYPRP, the figure is -0.106; as for RRIRWRPPRLPRPRPRPEAKPRP, 0.0319; as for RRIRKRPPRLPRPRPRPQYQPRP, -0.11.
RRIRNRPPRLPRPRPRPWFVPRP: the “shrunken log2 fold change” value is -0.429.
For RRIRHRPPRLPRPRPRPCVAPRP the value was 0.0478.
As for RRIRIRPPRLPRPRPRPKPCPRP, the figure is -0.0965; as for RRIRFRPPRLPRPRPRPWPEPRP, 0.0713; as for RRIRGRPPRLPRPRPRPIHSPRP, -0.441.
For RRIRFRPPRLPRPRPRPTNNPRP the value was -0.644; for RRIRARPPRLPRPRPRPSAAPRP, 0.848.
Consider RRIRRRPPRLPRPRPRPKVTPRP, for which the “shrunken log2 fold change” value was -0.131.
As for RRIRNRPPRLPRPRPRPHSYPRP, the figure is 0.132.
For RRIRARPPRLPRPRPRPACIPRP the value was 0.171.
Take RRIRERPPRLPRPRPRPVRGPRP: the “shrunken log2 fold change” value came out at 0.543.
With RRIRIRPPRLPRPRPRPMWGPRP, the “shrunken log2 fold change” value is -0.196.
As for RRIRCRPPRLPRPRPRPARCPRP, the “shrunken log2 fold change” value came out at 0.477.
For RRIRYRPPRLPRPRPRPCWAPRP the value was -0.434; for RRIRFRPPRLPRPRPRPRAYPRP, -0.23.
For RRIRWRPPRLPRPRPRPRQPPRP the value was 0.743; for RRIRPRPPRLPRPRPRPHDFPRP, -0.145.
Turning to RRIRRRPPRLPRPRPRPACAPRP, the “shrunken log2 fold change” value was found to be 0.727.
RRIRGRPPRLPRPRPRPHSIPRP: the “shrunken log2 fold change” value is 0.169.
Take RRIRHRPPRLPRPRPRPNQQPRP: the “shrunken log2 fold change” value was -0.0412.
With RRIRDRPPRLPRPRPRPKCAPRP, the “shrunken log2 fold change” value was 0.169.
As for RRIRFRPPRLPRPRPRPWHPPRP, the figure is -0.409; as for RRIRMRPPRLPRPRPRPTVNPRP, 0.177; as for RRIRARPPRLPRPRPRPLPWPRP, 0.51.
For RRIRRRPPRLPRPRPRPLLGPRP the value was 0.504.
As for RRIRKRPPRLPRPRPRPGRIPRP, the figure is -0.0354.
With RRIRCRPPRLPRPRPRPGYPPRP, the “shrunken log2 fold change” value is -0.00859.
As for RRIRSRPPRLPRPRPRPDADPRP, the figure is -0.0578.
For the sequence RRIRNRPPRLPRPRPRPKRPPRP, the “shrunken log2 fold change” value turned out to be 0.589.
Regarding RRIRARPPRLPRPRPRPVWPPRP, the “shrunken log2 fold change” value worked out at 0.623.
For RRIRCRPPRLPRPRPRPKPIPRP the value was 0.0598; for RRIRLRPPRLPRPRPRPHTEPRP, -0.167; for RRIRIRPPRLPRPRPRPVWLPRP, 0.0726.
As for RRIRSRPPRLPRPRPRPVRIPRP, the figure is -0.239.
In the case of RRIRGRPPRLPRPRPRPSCRPRP, the “shrunken log2 fold change” value turned out to be 0.417.
Take RRIRHRPPRLPRPRPRPHCPPRP: the “shrunken log2 fold change” value was -0.207.
As for RRIRLRPPRLPRPRPRPFLYPRP, the figure is -0.656.
For RRIRFRPPRLPRPRPRPHHMPRP the value was 0.335; for RRIRKRPPRLPRPRPRPVDKPRP, 0.0581.
As for RRIRHRPPRLPRPRPRPPKNPRP, the figure is -0.0129; as for RRIRWRPPRLPRPRPRPGLVPRP, 0.449.
As to RRIRQRPPRLPRPRPRPYQIPRP, the “shrunken log2 fold change” value is -0.227.
As for RRIRARPPRLPRPRPRPPVAPRP, the figure is 0.77.
As for RRIRIRPPRLPRPRPRPSCKPRP, the figure is -0.122; as for RRIRYRPPRLPRPRPRPDRSPRP, 0.00326; as for RRIRQRPPRLPRPRPRPATCPRP, -0.0483.
For RRIRQRPPRLPRPRPRPKDLPRP the value was -0.0616.
Turning to RRIRHRPPRLPRPRPRPPPPPRP, the “shrunken log2 fold change” value worked out at 1.05.
For RRIRYRPPRLPRPRPRPMWRPRP the value was -0.27.
As for RRIRLRPPRLPRPRPRPHGRPRP, the figure is 0.114; as for RRIRLRPPRLPRPRPRPTMHPRP, 0.0766; as for RRIRLRPPRLPRPRPRPQHLPRP, -0.223.
For RRIRARPPRLPRPRPRPHGWPRP, the “shrunken log2 fold change” value was 0.184.
As for RRIRDRPPRLPRPRPRPATSPRP, the “shrunken log2 fold change” value came to 0.303.
Consider RRIRCRPPRLPRPRPRPLIGPRP, for which the “shrunken log2 fold change” value is -0.0236.
For RRIRWRPPRLPRPRPRPMPFPRP the value was -0.133; for RRIRRRPPRLPRPRPRPFQMPRP, -0.138.
As for RRIRIRPPRLPRPRPRPYIRPRP, the figure is -0.159; as for RRIRPRPPRLPRPRPRPNECPRP, -0.217.
For RRIRYRPPRLPRPRPRPNTWPRP the value was -0.204; for RRIRDRPPRLPRPRPRPISMPRP, 0.0543; for RRIRNRPPRLPRPRPRPIIRPRP, -0.00165.
As to RRIRARPPRLPRPRPRPTENPRP, the “shrunken log2 fold change” value came out at 0.381.
As for RRIRDRPPRLPRPRPRPCCYPRP, the figure is 0.503.
As for RRIRDRPPRLPRPRPRPYIMPRP, the figure is -0.42; as for RRIRFRPPRLPRPRPRPQEVPRP, 0.0758; as for RRIRRRPPRLPRPRPRPVTQPRP, 0.197.
As for RRIRTRPPRLPRPRPRPQSCPRP, the figure is 0.057.
As for RRIRVRPPRLPRPRPRPHLKPRP, the “shrunken log2 fold change” value is -0.284.
As to RRIRYRPPRLPRPRPRPVFEPRP, the “shrunken log2 fold change” value came to 0.0623.
For RRIRLRPPRLPRPRPRPCDWPRP the value was 0.201.
As for RRIRCRPPRLPRPRPRPKMDPRP, the figure is -0.0622; as for RRIRLRPPRLPRPRPRPMLAPRP, 0.369.
As for RRIRWRPPRLPRPRPRPWIYPRP, the figure is 0.0862.
RRIRVRPPRLPRPRPRPSVPPRP: the “shrunken log2 fold change” value is -0.165.
For RRIRWRPPRLPRPRPRPLPLPRP the value was 0.477; for RRIRHRPPRLPRPRPRPLYMPRP, -0.00599.
With RRIRNRPPRLPRPRPRPQAHPRP, the “shrunken log2 fold change” value is -0.163.
For RRIRKRPPRLPRPRPRPWMYPRP the value was -0.122.
For RRIRPRPPRLPRPRPRPWKLPRP the value was -0.0861; for RRIRHRPPRLPRPRPRPICRPRP, 0.0125.
For RRIRVRPPRLPRPRPRPMSSPRP the value was 0.0619; for RRIRARPPRLPRPRPRPKHPPRP, 0.199.
On to RRIRFRPPRLPRPRPRPWRKPRP, for which the “shrunken log2 fold change” value was -0.0813.
For RRIRRRPPRLPRPRPRPVCVPRP the value was 0.359; for RRIRGRPPRLPRPRPRPTLAPRP, 1.27.
For RRIRYRPPRLPRPRPRPLHKPRP the value was 0.0382; for RRIRFRPPRLPRPRPRPLRGPRP, 0.607.
For RRIRGRPPRLPRPRPRPKVNPRP the value was 0.236.
As to RRIRNRPPRLPRPRPRPKFCPRP, the “shrunken log2 fold change” value is -0.198.
For RRIRSRPPRLPRPRPRPKDSPRP the value was 0.1; for RRIRTRPPRLPRPRPRPKLLPRP, 0.272.
For RRIRPRPPRLPRPRPRPGSAPRP the value was 0.18; for RRIRGRPPRLPRPRPRPDRPPRP, 0.376; for RRIRARPPRLPRPRPRPKKLPRP, 0.223.
As for RRIRVRPPRLPRPRPRPTGGPRP, the figure is 0.18; as for RRIRHRPPRLPRPRPRPVVEPRP, -0.0145.
Consider RRIRCRPPRLPRPRPRPMCHPRP, for which the “shrunken log2 fold change” value is -0.662.
As for RRIRVRPPRLPRPRPRPDVYPRP, the figure is -0.0411.
Take RRIRQRPPRLPRPRPRPWFIPRP: the “shrunken log2 fold change” value was -0.302.
For RRIRARPPRLPRPRPRPKNAPRP the value was 0.323.
For RRIRKRPPRLPRPRPRPYKAPRP the value was -0.0235; for RRIRYRPPRLPRPRPRPQIQPRP, -0.473; for RRIRERPPRLPRPRPRPSPSPRP, -0.269.
For RRIRGRPPRLPRPRPRPCGWPRP the value was 1.34; for RRIRLRPPRLPRPRPRPNMRPRP, 0.0295.
On to RRIRDRPPRLPRPRPRPVMNPRP, for which the “shrunken log2 fold change” value is -0.343.
For RRIRKRPPRLPRPRPRPHLRPRP the value was -0.0961.
For RRIRWRPPRLPRPRPRPCNHPRP the value was -0.427; for RRIRCRPPRLPRPRPRPRDGPRP, 1; for RRIRVRPPRLPRPRPRPWGIPRP, -0.265.
In the case of RRIRRRPPRLPRPRPRPIDKPRP, the “shrunken log2 fold change” value is -0.0465.
As for RRIRKRPPRLPRPRPRPQDSPRP, the figure is -0.017; as for RRIRRRPPRLPRPRPRPFFRPRP, 0.354; as for RRIRVRPPRLPRPRPRPRYWPRP, 0.338.

(Values after the supplement of paper PMC9112550, “Optimization of the antimicrobial peptide Bac7 by deep mutational scanning” (BMC Biology, 2022).)
